What was measured:
[1] = molecular target: HSV-1 (Herpes Simplex Virus type 1; antigen recognised not identified) (Herpes simplex virus 1); assay: cell-based or functional assay
[2] = molecular target: HSV-2 (Herpes Simplex Virus type 2; antigen recognised not identified) (Herpes simplex virus 2); assay: cell-based or functional assay

B1: Fab Ex2 (IgG1 Fab format) (Fab, V domains shown)
VH: LESGGGVVQPGRSLRLSCAASGFTFTTFAMHWVRQAPGKGLEWLAFISYDGSNKYYADSVKGRFTISRDNSKNTLYLQMNSLRAEDTSIYYCAREVWNYADYWGQGALVTVSS
VL: ELTQSPGTLSSSPGHRATLSCKASAPLGSNHMAWYQQKPGQAPRLLIYGASTRATGVPARFTGSGSGTDFTLTISSLQPEDFATYYCQQANSFPRTFGQGTKVEIK
IC50 (neutralization, IIF infection foci count, InCellAnalyzer) [1]: 0.7 µg/mL | IC50 (neutralization, IIF infection foci count, InCellAnalyzer) [2]: 0.2 µg/mL
